According to patent publication US20210155676A1 (Gilead, published 2021):
Numbering of substitutions follows the chain as printed.

Tests used:
[1] = target: HIV-1 92US657 Env (on virus) (HIV-1 isolate 92US657); assay: cell-based or functional assay
[2] = target: HIV-1 93HT593 Env (on virus) (HIV-1 isolate 93HT593); assay: cell-based or functional assay
[3] = target: HIV-1 BaL Env (on virus) (HIV-1 strain BaL); assay: cell-based or functional assay
[4] = target: HIV-1 92US712 Env (on virus) (HIV-1 isolate 92US712); assay: cell-based or functional assay
[5] = target: HIV-1 92US727 Env (on virus) (HIV-1 isolate 92US727); assay: cell-based or functional assay
[6] = target: T1, gp140 SHIV SF162P3 (SHIV SF162P3); assay: ELISA, gp140 coated
T1 construct: domain: gp140; also called SHIV gp140
Procedure: (§1) The in vitro binding characteristics of antibodies for both the antigen (HIV gp120) and Fc binding receptors (FcγRs, FcRn) were determined using an Enzyme-Linked Immunosorbant Assay (ELISA).

[7] = target: T2, gp140 BaL (HIV-1 strain BaL); assay: ELISA, gp140 coated
T2 construct: domain: gp140
Procedure: as §1

[8] = target: HIV-1 Env of subtype B isolate MGRM-B-118 (HIV-1); assay: cell-based or functional assay
[9] = target: HIV-1 Env of subtype B isolate MGRM-B-111 (HIV-1); assay: cell-based or functional assay
[10] = target: HIV-1 Env of subtype B isolate MGRM-B-105 (HIV-1); assay: cell-based or functional assay
[11] = target: HIV-1 Env of subtype B isolate MGRM-B-106 (HIV-1); assay: cell-based or functional assay
[12] = target: HIV-1 Env of subtype B isolate MGRM-B-115 (HIV-1); assay: cell-based or functional assay
[13] = target: HIV-1 Env of subtype B isolate MGRM-B-112 (HIV-1); assay: cell-based or functional assay
[14] = target: HIV-1 Env of subtype B isolate MGRM-B-110 (HIV-1); assay: cell-based or functional assay
[15] = target: HIV-1 Env of subtype B isolate MGRM-B-136 (HIV-1); assay: cell-based or functional assay
[16] = target: HIV-1 Env of subtype B isolate MGRM-B-132 (HIV-1); assay: cell-based or functional assay
[17] = target: HIV-1 Env of subtype B virus 15-124987 (HIV-1); assay: cell-based or functional assay
[18] = target: HIV-1 Env of subtype B virus 15-124904 (HIV-1); assay: cell-based or functional assay
[19] = target: HIV-1 Env of subtype B virus 15-101608 (HIV-1); assay: cell-based or functional assay
[20] = target: HIV-1 Env of subtype B virus 15-102514 (HIV-1); assay: cell-based or functional assay
[21] = target: HIV-1 Env of subtype B virus 15-124970 (HIV-1); assay: cell-based or functional assay
[22] = target: HIV-1 Env of subtype B virus 15-101757 (HIV-1); assay: cell-based or functional assay
[23] = target: HIV-1 Env of subtype B virus 15-124934 (HIV-1); assay: cell-based or functional assay
[24] = target: HIV-1 Env of subtype B virus 15-124914 (HIV-1); assay: cell-based or functional assay
[25] = target: HIV-1 Env of subtype B virus 15-124918 (HIV-1); assay: cell-based or functional assay
[26] = target: HIV-1 Env of subtype B virus 15-124950 (HIV-1); assay: cell-based or functional assay
[27] = target: HIV-1 Env of subtype B virus 15-124964 (HIV-1); assay: cell-based or functional assay
[28] = target: HIV-1 Env of subtype B virus 15-124963 (HIV-1); assay: cell-based or functional assay
[29] = target: HIV-1 Env of subtype B virus 15-124986 (HIV-1); assay: cell-based or functional assay
[30] = target: HIV-1 Env of subtype B virus 15-124906 (HIV-1); assay: cell-based or functional assay
[31] = target: HIV-1 Env of subtype B virus 15-124962 (HIV-1); assay: cell-based or functional assay
[32] = target: HIV-1 Env of subtype B virus 15-124975 (HIV-1); assay: cell-based or functional assay
[33] = target: T3, Human FcRn (human, UniProt P55899 24-297; P61769 21-119); assay: ELISA, FcRn coated on plate, pH 6.0
T3 construct: also called neonatal Fc receptor
T3 sequence (P55899 24-297 limits assumed, chain 1 of 2): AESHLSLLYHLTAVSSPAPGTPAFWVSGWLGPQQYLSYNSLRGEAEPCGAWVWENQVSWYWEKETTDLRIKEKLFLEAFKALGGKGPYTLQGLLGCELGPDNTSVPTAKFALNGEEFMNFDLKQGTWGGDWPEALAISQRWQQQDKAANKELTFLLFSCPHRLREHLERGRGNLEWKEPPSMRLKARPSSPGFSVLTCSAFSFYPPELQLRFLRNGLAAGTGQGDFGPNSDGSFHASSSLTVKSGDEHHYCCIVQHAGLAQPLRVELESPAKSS
T3 sequence (P61769 21-119 limits assumed, chain 2 of 2): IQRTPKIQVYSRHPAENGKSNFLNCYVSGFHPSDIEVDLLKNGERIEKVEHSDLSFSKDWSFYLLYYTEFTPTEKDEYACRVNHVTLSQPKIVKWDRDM
Procedure: (§2) The binding of antibodies to FcRn of various species at different pHs was determined. A 96-well Maxisorp plate was coated with 100 ul of 5 μg/ml FcRn. The plate was incubated overnight at 4° C., and then blocked with 4% skim milk for 2 hr at room temperature after washing 3 times with 0.05% Tween 20 washing buffer. The plate was incubated with 3 fold serial dilution of primary antibody for 1 hr at room temperature. The plate was then washed 3 times and 100 of Fab-anti-human Fab-HRP or Goat anti-human IgG-HRP secondary antibody diluted in 4% skimmed milk was added. Plates were then incubated 50 min at room temperature, washed three times, and 100 μL fresh TMB substrate was added. Plates were developed for 3 minutes on bench with gentle shaking. Plate was quenched with 100 μL 1M HCl, shaken briefly, read at A450 on a spectramax m5 plate reader.

[34] = target: T3, Human FcRn; assay: ELISA, ratio of EC50 at pH 7.0 to EC50 at pH 6.0
Procedure: as §2

[35] = target: T3, Human FcRn; assay: ELISA, pH 7.0/6.0 ratio relative to PGT121
Procedure: as §2

[36] = target: T3, Human FcRn; assay: ELISA, FcRn coated on plate, pH 7.0
Procedure: as §2

[37] = target: human FcγRIIIA on primary NK effector cells (human, UniProt P08637 17-254); assay: cell-based or functional assay
human FcγRIIIA on primary NK effector cells, sequence (P08637 17-254): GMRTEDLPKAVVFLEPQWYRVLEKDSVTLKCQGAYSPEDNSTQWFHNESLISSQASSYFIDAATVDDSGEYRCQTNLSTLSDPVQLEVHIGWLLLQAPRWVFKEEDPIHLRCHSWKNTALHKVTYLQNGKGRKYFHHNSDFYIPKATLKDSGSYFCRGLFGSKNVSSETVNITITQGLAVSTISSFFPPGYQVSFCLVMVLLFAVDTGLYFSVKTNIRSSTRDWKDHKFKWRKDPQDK

B1: PGT121.56 hIgG1/hLambda (antibody)
heavy: QMQLQESGPGLVKPSETLSLTCSVSGASISDSYWSWIRRSPGKGLEWIGYVHKSGDTNYSPSLKSRVNLSLDTSKNQVSLSLVAATAADSGKYYCARTLHGRRIYGIVAFNEWFTYFYMDVWGNGTQVTVSSASTKGPSVFPLAPSSKSTSGGTAALGCLVKDYFPEPVTVSWNSGALTSGVHTFPAVLQSSGLYSLSSVVTVPSSSLGTQTYICNVNHKPSNTKVDKKVEPKSCDKTHTCPPCPAPELLAGPDVFLFPPKPKDTLMISRTPEVTCVVVDVSHEDPEVKFNWYVDGVEVHNAKTKPREEQYNSTYRVVSVLTVLHQDWLNGKEYKCKVSNKALPLPEEKTISKAKGQPREPQVYTLPPSREEMTKNQVSLTCLVKGFYPSDIAVEWESNGQPENNYKTTPPVLDSDGSFFLYSKLTVDKSRWQQGNVFSCSVLHEALHSHYTQKSLSLSPGK
light: not shown
neutralization IC50, HIV-1 US657, CEM.NKr.CCR5.Luc assay [1]: 0.142 µg/mL
neutralization IC50, HIV-1 HT593, CEM.NKr.CCR5.Luc assay [2]: 0.164 µg/mL
neutralization IC50, HIV-1 BaL, CEM.NKr.CCR5.Luc assay [3]: 0.02 µg/mL
neutralization IC50, HIV-1 US712, CEM.NKr.CCR5.Luc assay [4]: 0.019 µg/mL
neutralization IC50, HIV-1 US727, CEM.NKr.CCR5.Luc assay [5]: 0.011 µg/mL
EC50 [6]: 480 pM
EC50 [7]: 590 pM

B2: PGT121.60 hIgG1/hLambda (antibody)
heavy: B1 heavy with S60N, N68H, V83T, A84G, A85V, N124T
light: not shown
PGT121 IC50/PGT121.60 IC50 [8]: 0.7 fold
neutralization IC50 [8]: 3.31 µg/mL
PGT121 IC50/PGT121.60 IC50 [9]: 2.2 fold
neutralization IC50 [9]: 0.955 µg/mL
PGT121 IC50/PGT121.60 IC50 [10]: 2.9 fold
neutralization IC50 [10]: 0.0076 µg/mL
PGT121 IC50/PGT121.60 IC50 [11]: 4.1 fold
neutralization IC50 [11]: 0.001 µg/mL
PGT121 IC50/PGT121.60 IC50 [12]: 1.7 fold
neutralization IC50 [12]: 0.141 µg/mL
PGT121 IC50/PGT121.60 IC50 [13]: 2.5 fold
neutralization IC50 [13]: 0.0058 µg/mL
PGT121 IC50/PGT121.60 IC50 [14]: 3.3 fold
neutralization IC50 [14]: 0.0113 µg/mL
PGT121 IC50/PGT121.60 IC50 [15]: 1.2 fold
neutralization IC50 [15]: 0.0071 µg/mL
PGT121 IC50/PGT121.60 IC50 [16]: 1.2 fold
neutralization IC50 [16]: 0.0077 µg/mL
PGT121 IC50/PGT121.60 IC50 [17]: 3.1 fold
neutralization IC50 [17]: 0.0163 µg/mL
PGT121 IC50/PGT121.60 IC50 [18]: 3.1 fold
neutralization IC50 [18]: 0.0121 µg/mL
PGT121 IC50/PGT121.60 IC50 [19]: 3.6 fold
neutralization IC50 [19]: 1.84 µg/mL
PGT121 IC50/PGT121.60 IC50 [20]: 3.5 fold
neutralization IC50 [20]: 0.0128 µg/mL
PGT121 IC50/PGT121.60 IC50 [21]: 3.9 fold
neutralization IC50 [21]: 0.0285 µg/mL
PGT121 IC50/PGT121.60 IC50 [22]: 4.7 fold
neutralization IC50 [22]: 0.0132 µg/mL
PGT121 IC50/PGT121.60 IC50 [23]: 12.1 fold
neutralization IC50 [23]: 0.797 µg/mL
PGT121 IC50/PGT121.60 IC50 [24]: 3 fold
neutralization IC50 [24]: 0.002 µg/mL
PGT121 IC50/PGT121.60 IC50 [25]: 3 fold
neutralization IC50 [25]: 0.0018 µg/mL
PGT121 IC50/PGT121.60 IC50 [26]: 3 fold
neutralization IC50 [26]: 0.0995 µg/mL
PGT121 IC50/PGT121.60 IC50 [27]: 3.5 fold
neutralization IC50 [27]: 0.0026 µg/mL
PGT121 IC50/PGT121.60 IC50 [28]: 8.2 fold
neutralization IC50 [28]: 2.05 µg/mL
PGT121 IC50/PGT121.60 IC50 [29]: 3.2 fold
neutralization IC50 [29]: 0.0015 µg/mL
PGT121 IC50/PGT121.60 IC50 [30]: 5.3 fold
neutralization IC50 [30]: 0.0103 µg/mL
PGT121 IC50/PGT121.60 IC50 [31]: 3.4 fold
neutralization IC50 [31]: 0.0277 µg/mL
PGT121 IC50/PGT121.60 IC50 [32]: 5.5 fold
neutralization IC50 [32]: 0.105 µg/mL
EC50 [33]: 220 pM
Ratio pH 7.0/6.0 [34]: 355
Fold vs PGT121 [35]: 11 fold
EC50 [36]: 78000 pM
ADCC AUC, NK donor A4813, primary CD4+ T cells infected with HT593 [37]: 185
ADCC AUC, NK donor A4813, primary CD4+ T cells infected with US657 [37]: 220
ADCC EC50, NK donor A4813, primary CD4+ T cells infected with HT593 [37]: 700 pM
ADCC EC50, NK donor A4813, primary CD4+ T cells infected with US657 [37]: 1200 pM
ADCC Emax, NK donor A4813, primary CD4+ T cells infected with HT593 [37]: 67%
ADCC Emax, NK donor A4813, primary CD4+ T cells infected with US657 [37]: 72%
